The values that follow come from paper PMC7505815, “Estrogen receptor alpha (ERα)–mediated coregulator binding and gene expression discriminates the toxic ERα agonist diethylstilbestrol (DES) from the endogenous ERα agonist 17β-estradiol (E2)” (Cell Biology and Toxicology, 2020).

This assay deals with T1, Polyhistidine (His) tagged ERα ligand binding domain (amino acids 302–552) (UniProt P03372 302-552).
T1 construct: Detected on the array by a penta-His Alexa Fluor 488 antibody; Always tested with E2, DES or solvent (2% DMSO); also called ERα-LBD; source: partly purified from Escherichia coli (Qiagen)
T1 sequence (looked up): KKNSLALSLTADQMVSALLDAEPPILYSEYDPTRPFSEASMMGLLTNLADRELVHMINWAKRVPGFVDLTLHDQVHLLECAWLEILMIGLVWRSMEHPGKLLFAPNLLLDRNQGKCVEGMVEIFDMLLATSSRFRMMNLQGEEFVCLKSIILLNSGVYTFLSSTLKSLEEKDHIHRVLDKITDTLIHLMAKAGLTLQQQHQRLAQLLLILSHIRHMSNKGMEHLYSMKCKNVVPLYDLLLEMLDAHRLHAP
The assay can be described thus: peptide or protein array; MARCoNI, PamChip peptide microarray: coregulator motif peptides immobilised; His-ERα-LBD 10 nM (partly purified) in solution with E2 (10^-12 to 10^-5 M), detected with penta-His Alexa Fluor 488 antibody 25 nM; 20 °C; 20 mM Tris-HCl pH 7.5, 500 mM NaCl, 0.2% BSA, 0.05% Tween 20, 2% DMSO. The settings on record: both partners purified.

B1: TRRAP_3535_3557_C3535S/C3555S (peptide, UniProt Q9Y4A5 3535-3557, looked up)
peptide: SLTESRREERVLQLLRLLNPSLE
notes: Immobilised on the PamChip; also called TRRAP_3535_3557_C3535S/C3535S; source: bought: PamChip peptide microarray, PamGene International BV
As to B1, the binding result was “binds”.
